Assay in all cases: smFRET
For data set [1], the target named is T1, GAF-DBD (GAF-ZnF, Cy3) (Drosophila melanogaster, UniProt Q08605).
T1 sequence: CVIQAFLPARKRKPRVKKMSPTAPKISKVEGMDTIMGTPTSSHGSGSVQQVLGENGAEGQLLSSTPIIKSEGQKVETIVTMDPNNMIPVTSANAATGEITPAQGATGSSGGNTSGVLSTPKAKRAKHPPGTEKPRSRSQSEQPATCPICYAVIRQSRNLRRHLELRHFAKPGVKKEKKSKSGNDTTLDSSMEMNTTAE

Data set [2] concerns the target T1, GAF-DBD (GAF-ZnF, Cy3). The source holds these as a separate data set.
The target in data set [3] is T1, GAF-DBD (GAF-ZnF, Cy3). The source holds these as a separate data set.
Data set [4] concerns the target T1, GAF-DBD (GAF-ZnF, Cy3). The source holds these as a separate data set.

From paper PMC10369947 come the findings set out here.

Where two headings read alike, the source gives them in different places.

B1: Cognate-Motif Cy5-DNA (90 bp) (dsDNA)
DNA 1: GTTTTGTGAGTACGCGCTGTTGTACTATTGTTAACCCACAAGGTCGCACAGTAAACGGCACACTGTACGTGTTGCTTCGAGAGAGCGCGC
DNA 2: GCGCGCTCTCTCGAAGCAACACGTACAGTGTGCCGTTTACTGTGCGACCTTGTGGGTTAACAATAGTACAACAGCGCGTACTCACAAAAC
modifications: internal backbone Cy5 in strand 2
For B1, in the data set with GAF-DBD (GAF-ZnF, Cy3) [1], the binding result is listed as “binds”.

B2: hsp70 tandem Cy5/Cy7 DNA (187 bp) (dsDNA)
DNA 1: TCATTTGTTTGGCAGAAAGAAAACTCTCAAAATTTCGTTGGCCGTTATAGCATATTCGTTTTGTGAGAGAGGGAGAGAGTACTATTGTTAACCCACAAGGTCGCACAGTAAACGGCACACTGTACGTGTTGCTTCGAGAGAGCGCGCCACCTGGTGTCGCGAAAAGAGCGCCGGAGTATAAATAGAG
DNA 2: CTCTATTTATACTCCGGCGCTCTTTTCGCGACACCAGGTGGCGCGCTCTCTCGAAGCAACACGTACAGTGTGCCGTTTACTGTGCGACCTTGTGGGTTAACAATAGTACTCTCTCCCTCTCTCACAAAACGAATATGCTATAACGGCCAACGAAATTTTGAGAGTTTTCTTTCTGCCAAACAAATGA
modifications: amino-C6-T coupled dyes
B2: in the data set with GAF-DBD (GAF-ZnF, Cy3) [2], the binding result is listed as “binds”.

B3: hsp70 Site 2 Only Cy5/Cy7 DNA (dsDNA)
DNA 1: TCATTTGTTTGGCAGAAAGAAAACTCTCAAAATTTCGTTGGCCGTTATAGCATATTCGTTTTGTCCAGCACTGTAATAGTACTATTGTTAACCCACAAGGTCGCACAGTAAACGGCACACTGTACGTGTTGCTTCGAGAGAGCGCGCCACCTGGTGTCGCGAAAAGAGCGCCGGAGTATAAATAGAG
DNA 2: CTCTATTTATACTCCGGCGCTCTTTTCGCGACACCAGGTGGCGCGCTCTCTCGAAGCAACACGTACAGTGTGCCGTTTACTGTGCGACCTTGTGGGTTAACAATAGTACTATTACAGTGCTGGACAAAACGAATATGCTATAACGGCCAACGAAATTTTGAGAGTTTTCTTTCTGCCAAACAAATGA
modifications: amino-C6-T coupled dyes
As for B3, the binding result with GAF-DBD (GAF-ZnF, Cy3) [3] is listed as “binds”.

B4: hsp70 flipped Cy5/Cy7 DNA (187 bp) (dsDNA)
DNA 1: TCATTTGTTTGGCAGAAAGAAAACTCTCAAAATTTCGTTGGCCGTTATAGCATATTCGTTTTGTGACTCTCCCTCTCTGTACTATTGTTAACCCACAAGGTCGCACAGTAAACGGCACACTGTACGTGTTGCTTCGAGAGAGCGCGCCACCTGGTGTCGCGAAAAGAGCGCCGGAGTATAAATAGAG
DNA 2: CTCTATTTATACTCCGGCGCTCTTTTCGCGACACCAGGTGGCGCGCTCTCTCGAAGCAACACGTACAGTGTGCCGTTTACTGTGCGACCTTGTGGGTTAACAATAGTACAGAGAGGGAGAGTCACAAAACGAATATGCTATAACGGCCAACGAAATTTTGAGAGTTTTCTTTCTGCCAAACAAATGA
modifications: amino-C6-T coupled dyes
As to B4, the binding result with GAF-DBD (GAF-ZnF, Cy3) [4] was “binds”.
